Assay results as given in patent US20090203766, “vWF aptamer formulations and methods for use” (Archemix Corp., published 2009).

B1: ARC1779 oligonucleotide core (no PEG) (mixed)
mixed: GCGUGCAGUGCCUUCGGCCGTGCGGTGCCUCCGUCACGC
modifications: same 2'-OMe/deoxy/PS/3'-inverted dT pattern as ARC1779, 5'-OH instead of hexylamine-PEG
B2: ARC1779 (mixed)
mixed: B1 mixed
modifications: mGmCmGmUdGdCdAmGmUmGmCmCmUmUmCmGmGmCdCmG-s-dTmGdCdGdGdTmGmCdCmUdCdCmGmUdCmAmCmGmC-3T (m 2'-OMe; d deoxy; s PS; 3T inverted dT), 5'-20 kDa PEG

Tests used:
[1] = biological target: von Willebrand factor (vWF) (Homo sapiens, UniProt P04275 P04275:764-2813); assay: filter; text gives value as affinity of ARC1779 for vWF; PBS, 0.1 mg/ml BSA, room temperature 30 min; details: label: 5'-32P
Experimental: For binding assays, the oligonucleotide core of ARC1779 was synthesized with a 5′-terminal hydroxyl moiety instead of a 5′ hexylamine and 20 kDa PEG and subsequently 5′-end labeled with γ-³²P ATP using T4 polynucleotide kinase (New England BioLabs, Beverly, Mass.). Aptamer was incubated at room temperature for 30 minutes in PBS containing 0.1 mg/ml BSA (as a specificity control) and increasing concentrations of human VWF. Bound complexes were separated from free DNA using an acrylic mini-dot blot apparatus (Schleicher and Schuell, Keene, N.H.) and a membrane sandwich (top to bottom) of Protran BA85 0.45 μm Nitrocellulose Membrane (Schleicher and Schuell, Keene, N.H.), Hybond P Nylon Membrane (Amersham, Piscataway, N.J.), and 3mM filter paper (Whatman, Florham Park, N.J.) all pre-wet with Dulbecco's PBS. Radioactivity associated with protein:DNA complexes (nitrocellulose) and free DNA (nylon) was quantified on a Storm 860 Phosphorimager (Molecular Dynamics/Amersham, Piscataway, N.J.). Binding constants were determined by fitting the fraction of aptamer bound as a function of the concentration of vWF.

[2] = biological target: von Willebrand factor (vWF), A1 domain sites in plasma/blood (Homo sapiens, UniProt P04275 P04275:764-2813); assay: free vWF A1 sites activity ELISA, plasma after dosing of healthy volunteers, Emax fit; 0.22 ug/mL; EC90 151 nM; details: protein: extract
Sequence of von Willebrand factor (vWF), A1 domain sites in plasma/blood (P04275 764-2813, one chain of several): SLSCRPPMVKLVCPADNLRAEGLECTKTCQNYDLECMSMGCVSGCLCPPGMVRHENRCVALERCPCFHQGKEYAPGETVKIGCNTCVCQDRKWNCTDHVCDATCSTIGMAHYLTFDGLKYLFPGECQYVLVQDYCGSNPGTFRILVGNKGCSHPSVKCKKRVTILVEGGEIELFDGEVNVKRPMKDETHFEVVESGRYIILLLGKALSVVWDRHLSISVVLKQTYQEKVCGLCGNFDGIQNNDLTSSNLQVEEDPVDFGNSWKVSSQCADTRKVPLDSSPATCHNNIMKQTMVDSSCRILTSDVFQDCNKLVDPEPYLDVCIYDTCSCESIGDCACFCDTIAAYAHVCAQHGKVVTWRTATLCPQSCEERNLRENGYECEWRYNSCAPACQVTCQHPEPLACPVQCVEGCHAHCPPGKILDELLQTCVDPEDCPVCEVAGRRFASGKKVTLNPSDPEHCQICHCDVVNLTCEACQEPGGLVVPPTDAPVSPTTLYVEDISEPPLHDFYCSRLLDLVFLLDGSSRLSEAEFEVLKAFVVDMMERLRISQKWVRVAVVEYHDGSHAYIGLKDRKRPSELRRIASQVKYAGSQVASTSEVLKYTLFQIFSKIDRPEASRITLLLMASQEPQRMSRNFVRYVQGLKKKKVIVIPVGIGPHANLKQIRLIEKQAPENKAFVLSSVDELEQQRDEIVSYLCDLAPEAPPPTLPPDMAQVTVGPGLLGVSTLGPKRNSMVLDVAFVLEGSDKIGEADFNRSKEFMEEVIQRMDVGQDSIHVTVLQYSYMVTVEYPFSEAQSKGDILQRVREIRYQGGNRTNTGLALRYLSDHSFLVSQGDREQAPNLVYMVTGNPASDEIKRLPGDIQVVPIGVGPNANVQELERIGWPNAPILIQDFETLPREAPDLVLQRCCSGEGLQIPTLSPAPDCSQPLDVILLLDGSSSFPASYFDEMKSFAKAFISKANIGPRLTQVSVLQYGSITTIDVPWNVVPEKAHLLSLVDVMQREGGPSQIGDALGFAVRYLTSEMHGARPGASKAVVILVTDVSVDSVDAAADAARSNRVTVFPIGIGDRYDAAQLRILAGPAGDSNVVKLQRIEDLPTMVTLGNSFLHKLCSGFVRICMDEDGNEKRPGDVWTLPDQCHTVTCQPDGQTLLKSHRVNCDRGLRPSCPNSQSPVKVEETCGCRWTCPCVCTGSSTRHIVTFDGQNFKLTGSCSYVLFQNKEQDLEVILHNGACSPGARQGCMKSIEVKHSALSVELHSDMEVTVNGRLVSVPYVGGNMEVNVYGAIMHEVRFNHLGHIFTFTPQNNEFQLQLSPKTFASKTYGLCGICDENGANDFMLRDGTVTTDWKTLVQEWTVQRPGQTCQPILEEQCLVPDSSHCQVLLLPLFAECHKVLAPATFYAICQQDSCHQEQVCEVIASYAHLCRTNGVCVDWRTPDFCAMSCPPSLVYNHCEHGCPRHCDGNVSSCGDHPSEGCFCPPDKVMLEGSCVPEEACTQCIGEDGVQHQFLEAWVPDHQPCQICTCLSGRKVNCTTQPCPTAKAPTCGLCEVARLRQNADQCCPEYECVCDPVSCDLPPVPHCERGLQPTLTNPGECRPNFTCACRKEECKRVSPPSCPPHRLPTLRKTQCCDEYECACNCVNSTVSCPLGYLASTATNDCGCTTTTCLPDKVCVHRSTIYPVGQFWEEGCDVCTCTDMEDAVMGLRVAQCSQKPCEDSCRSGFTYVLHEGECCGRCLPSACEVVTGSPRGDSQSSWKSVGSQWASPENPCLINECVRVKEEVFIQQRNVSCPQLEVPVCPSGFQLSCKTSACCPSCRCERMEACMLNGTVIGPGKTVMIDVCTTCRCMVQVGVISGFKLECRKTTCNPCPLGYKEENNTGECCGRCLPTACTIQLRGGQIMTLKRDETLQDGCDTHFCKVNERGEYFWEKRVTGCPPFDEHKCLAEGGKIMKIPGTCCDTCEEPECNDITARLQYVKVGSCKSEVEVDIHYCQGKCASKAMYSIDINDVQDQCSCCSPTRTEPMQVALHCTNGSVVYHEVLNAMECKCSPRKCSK

Sequence of von Willebrand factor (vWF) (P04275 764-2813, one chain of several): as above

Binder	Kd [1] [nM]	EC50 [2] [nM]
B1	~2	
B2		17
